Test results taken from PMC10245680 (bioRxiv, 2023).

Experiments:
[1] = target: recombinant murine uracil DNA glycosylase (UNG) (Mus musculus, UniProt P97931); experiment: ELISA
[2] = target: viral UNG (vUNG) expressed in transfected 293 cells (Murid herpesvirus 4 (MHV68), isolate …, UniProt P88984); experiment: immunostaining of cells or tissue
[3] = target: vUNG expressed in MHV68-infected 3T12 cells (Murid herpesvirus 4 (MHV68 wild type …, UniProt P88984)); experiment: flow cytometry on cells

Chain of recombinant murine uracil DNA glycosylase (UNG) (P97931 whole entry): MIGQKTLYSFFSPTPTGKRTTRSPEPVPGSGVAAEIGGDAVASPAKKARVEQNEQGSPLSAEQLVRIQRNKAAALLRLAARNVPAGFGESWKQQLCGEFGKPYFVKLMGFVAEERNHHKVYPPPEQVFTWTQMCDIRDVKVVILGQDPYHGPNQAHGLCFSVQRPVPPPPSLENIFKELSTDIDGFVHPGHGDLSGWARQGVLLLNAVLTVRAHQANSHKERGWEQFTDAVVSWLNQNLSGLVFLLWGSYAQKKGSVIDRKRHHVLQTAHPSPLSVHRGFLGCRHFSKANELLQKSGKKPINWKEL

B1: recombinant mouse anti-vUNG antibody (against MHV68 ORF46 / viral uracil DNA glycosylase) (antibody, V domains shown)
VH: QVQLQQPGAELVKPGASVKMSCKASGYTFTSYWITWVKQRPGQGLEWIGDIYPGSGSTKYNEKFKSKATLTVDTSSSTAYMQLSSLTSEDSAVYYCARLDYYYAMDYWGQGTSVTVSS
VL: DIVMTQSQKFMSTSVGDRVSVTCKASQNVGTNVAWYQQKPGQSPKALIYSASYRYSGVPDRFTGSGSGTDFTLTISNVPSEDLAEYFCQQYNNYPLTFGSGTKLEIK
B1: no binding [1]; binds [2]; binds [3].
